Experimental data: publication doi:10.1101/2024.10.01.616120 (bioRxiv, 2024)

B1: p47 (natural protein)
chain: MAAERQEALREFVAVTGAEEDRARFFLESAGWDLQIALASFYEDGGDEDIVTISQATPSSVSRGTAPSDNRVTSFRDLIHDQDEDEEEEEGQRFYAGGSERSGQQIVGPPRKKSPNELVDDLFKGAKEHGAVAVERVTKSPGETSKPRPFAGGGYRLGAAPEEESAYVAGEKRQHSSQDVHVVLKLWKSGFSLDNGELRSYQDPSNAQFLESIRRGEVPAELRRLAHGGQVNLDMEDHRDEDFVKPKGAFKAFTGEGQKLGSTAPQVLSTSSPAQQAENEAKASSSILIDESEPTTNIQIRLADGGRLVQKFNHSHRISDIRLFIVDARPAMAATSFILMTTFPNKELADESQTLKEANLLNAVIVQRLT
B2: valosin contain protein p97/p47 interacting protein 1 (VCPIP1), wild type (enzyme)
chain: MSQPPPPPPPLPPPPPPPEAPQTPSSLASAAASGGLLKRRDRRILSGSCPDPKCQARLFFPASGSVSIECTECGQRHEQQQLLGVEEVTDPDVVLHNLLRNALLGVTGAPKKNTELVKVMGLSNYHCKLLSPILARYGMDKQTGRAKLLRDMNQGELFDCALLGDRAFLIEPEHVNTVGYGKDRSGSLLYLHDTLEDIKRANKSQECLIPVHVDGDGHCLVHAVSRALVGRELFWHALRENLKQHFQQHLARYQALFHDFIDAAEWEDIINECDPLFVPPEGVPLGLRNIHIFGLANVLHRPIILLDSLSGMRSSGDYSATFLPGLIPAEKCTGKDGHLNKPICIAWSSSGRNHYIPLVGIKGAALPKLPMNLLPKAWGVPQDLIKKYIKLEEDGGCVIGGDRSLQDKYLLRLVAAMEEVFMDKHGIHPSLVADVHQYFYRRTGVIGVQPEEVTAAAKKAVMDNRLHKCLLCGALSELHVPPEWLAPGGKLYNLAKSTHGQLRTDKNYSFPLNNLVCSYDSVKDVLVPDYGMSNLTACNWCHGTSVRKVRGDGSIVYLDGDRTNSRSTGGKCGCGFKHFWDGKEYDNLPEAFPITLEWGGRVVRETVYWFQYESDSSLNSNVYDVAMKLVTKHFPGEFGSEILVQKVVHTILHQTAKKNPDDYTPVNIDGAHAQRVGDVQGQESESQLPTKIILTGQKTKTLHKEELNMSKTERTIQQNITEQASVMQKRKTEKLKQEQKGQPRTVSPSTIRDGPSSAPATPTKAPYSPTTSKEKKIRITTNDGRQSMVTLKSSTTFFELQESIAREFNIPPYLQCIRYGFPPKELMPPQAGMEKEPVPLQHGDRITIEILKSKAEGGQSAAAHSAHTVKQEDIAVTGKLSSKELQEQAEKEMYSLCLLATLMGEDVWSYAKGLPHMFQQGGVFYSIMKKTMGMADGKHCTFPHLPGKTFVYNASEDRLELCVDAAGHFPIGPDVEDLVKEAVSQVRAEATTRSRESSPSHGLLKLGSGGVVKKKSEQLHNVTAFQGKGHSLGTASGNPHLDPRARETSVVRKHNTGTDFSNSSTKTEPSVFTASSSNSELIRIAPGVVTMRDGRQLDPDLVEAQRKKLQEMVSSIQASMDRHLRDQSTEQSPSDLPQRKTEVVSSSAKSGSLQTGLPESFPLTGGTENLNTETTDGCVADALGAAFATRSKAQRGNSVEELEEMDSQDAEMTNTTEPMDHS
modifications: labeled with BODIPY, DOL 0.23, as the labelled partner in the TR-FRET assays; unlabeled as competitor

Molecular target: valosin-containing protein (VCP)/p97 (UniProt P55072 1-806, labeled with Terbium (CoraFluor), DOL 0.33, in the TR-FRET assays)
Sequence (P55072 whole entry): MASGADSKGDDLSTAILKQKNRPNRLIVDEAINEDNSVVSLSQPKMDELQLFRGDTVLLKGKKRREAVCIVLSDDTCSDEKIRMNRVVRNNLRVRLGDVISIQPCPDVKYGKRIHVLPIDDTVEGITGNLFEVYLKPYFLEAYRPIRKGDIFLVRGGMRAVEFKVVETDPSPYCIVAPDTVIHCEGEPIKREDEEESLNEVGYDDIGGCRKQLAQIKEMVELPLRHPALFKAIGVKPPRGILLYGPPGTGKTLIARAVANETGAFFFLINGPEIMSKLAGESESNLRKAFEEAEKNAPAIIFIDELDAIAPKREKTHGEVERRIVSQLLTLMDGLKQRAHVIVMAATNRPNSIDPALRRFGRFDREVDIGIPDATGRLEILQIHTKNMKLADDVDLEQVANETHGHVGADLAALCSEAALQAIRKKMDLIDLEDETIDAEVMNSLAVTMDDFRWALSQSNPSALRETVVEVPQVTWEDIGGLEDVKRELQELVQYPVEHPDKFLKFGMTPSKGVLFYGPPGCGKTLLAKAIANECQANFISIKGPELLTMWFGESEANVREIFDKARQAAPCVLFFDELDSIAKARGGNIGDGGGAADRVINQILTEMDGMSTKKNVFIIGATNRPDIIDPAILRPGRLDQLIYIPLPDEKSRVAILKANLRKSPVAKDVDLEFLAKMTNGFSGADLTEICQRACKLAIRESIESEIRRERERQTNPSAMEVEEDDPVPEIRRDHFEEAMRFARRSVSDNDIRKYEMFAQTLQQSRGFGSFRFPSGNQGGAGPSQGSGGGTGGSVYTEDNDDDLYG
Assay: FRET or BRET

Row | Binder | IC50
1 | B1 | 20.4 ± 2.8 nM
2 | B2 | 74.5 ± 13.9 nM
